Results reported in the RNAGym collection of RNA variant scans (doi:10.1093/molbev/msab373).

B1: Azoarcus group I ribozyme (parent)
chain: GUGCCUUGCGCCGGGAAACCACGCAAGGGAUGGUGUCAAAUUCGGCGAAACCUAAGCGCCCGCCCGGGCGUAUGGCAACGCCGAGCCAAGCUUCGGCGCCUGCGCCGAUGAAGGUGUAGAGACUAGACGGCACCCACCUAAGGCAAACGCUAUGGUGAAGGCAUAGUCCAGGGAGUGGCGAAAGUCACACAAACCGG

Variants of: B1
Test: reverse-splicing fitness (ratio to wild type); higher = more active; in vitro selection; Mg2+ level not given
Outline: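 An in vitro group I ribozyme library with randomized positions was T7-transcribed and gel-purified. In triplicate, 10 pmol RNA in EPPS pH 7.5 was reacted with 50 pmoles of a 30-nt RNA substrate for 1 h at 37 °C across several added MgCl2 levels (1–48 mM), then stopped with EDTA. Products were reverse transcribed from a substrate-complementary primer, PCR-amplified and sequenced (HiSeq 4000). Fitness is a variant's read proportion after selection over that before, normalised to wild type.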

Going from C82G A111U A120C A145C C169U U176C to C82G A111U A120C A145C C150U C169G U176G, the reverse-splicing fitness falls from 0.0128 to 0.00776.

First: C82G A111U A120C A145C C150U C169G U176A
Second: C82G A111U A120C A145C C150U C169G U176C
The reverse-splicing fitness of the first is higher: 0.0279 for the first, 0.0221 for the second.

Going from C82G A111U A120C A145G C169U U176C to C82G A111U A120C A145G C169U U176A, the reverse-splicing fitness falls from 0.0156 to 0.0138.

First: C82G A111U A120C A145G C169U U176G
Second: C82G A111G C150U C169U U176A
The reverse-splicing fitness of the first is lower: 0.00528 for the first, 0.0147 for the second.

First: C82G A111G C150U C169U U176G
Second: C82G A111G C150U C169U U176C
The reverse-splicing fitness of the first is lower: 0.00785 for the first, 0.0172 for the second.

Compared with C82G A111G C150G C169A U176C, C82G A111G C150G C169A U176A is lower in reverse-splicing fitness: 0.0166 for the first, 0.014 for the second.

Going from C82G A111G C150G C169A U176G to C82G A111U A120C A145U C150G C169U U176A, the reverse-splicing fitness rises from 0.00786 to 0.0083.

Going from C82G A111U A120C A145U C150G C169U U176G to C82G A111U A120C A145U C150G C169U U176C, the reverse-splicing fitness rises from 0.00561 to 0.0123.

Going from C82G A111U A120C A145U C150U C169A U176A to C82G A111U A120C A145U C150U C169A U176C, the reverse-splicing fitness falls from 0.0178 to 0.0135.

Compared with C82G A111U A120C A145U C150U C169A U176G, C82G A111G C150G U176G is lower in reverse-splicing fitness: 0.00636 for the first, 0.00548 for the second.

Compared with C82G A111G C150G U176C, C82G A111G C150G U176A is lower in reverse-splicing fitness: 0.0225 for the first, 0.0136 for the second.

First: C82G A111U A120C
Second: C82G A111U A120C A145U C150G C169G
The reverse-splicing fitness of the first is higher: 0.0483 for the first, 0.00772 for the second.

Compared with C82G A111U A120C A145U C150G C169A, C82G A111U A120C A145U C150G C169U is higher in reverse-splicing fitness: 0.00911 for the first, 0.00954 for the second.

Compared with C82G A111U A120C A145G C169A U176G, C82G A111U A120C A145G C169A U176C is higher in reverse-splicing fitness: 0.00615 for the first, 0.0267 for the second.

Compared with C82G A111U A120C A145G C169A U176A, C82G A111U A120C A145G U176C is higher in reverse-splicing fitness: 0.0222 for the first, 0.0311 for the second.

Going from C82G A111U A120C A145G U176A to C82G A111U A120C A145G U176G, the reverse-splicing fitness falls from 0.0173 to 0.00743.

Going from C82G A111U A120C A145C C150G C169G U176G to C82G A111U A120C A145C C150G C169G U176A, the reverse-splicing fitness rises from 0.00606 to 0.0106.

Compared with C82G A111U A120C A145C C150G C169G U176C, C82G A111U A120C A145G C150A C169A is higher in reverse-splicing fitness: 0.00909 for the first, 0.0113 for the second.

Compared with C82G A111U A120C A145G C150A C169U, C82G A111U A120C A145G C150A C169G is lower in reverse-splicing fitness: 0.0121 for the first, 0.00949 for the second.

Going from C82G A111U A120C A145C C150U C169U U176C to C82G A111U A120C A145C C150U C169U U176G, the reverse-splicing fitness falls from 0.0118 to 0.00678.

Compared with C82G A111U A120C A145C C150U C169U U176A, C82G A111U A120C A145G C150U C169A U176C is higher in reverse-splicing fitness: 0.0127 for the first, 0.0177 for the second.

First: C82G A111U A120C A145G C150U C169A U176A
Second: C82G A111U A120C A145G C150U C169A U176G
The reverse-splicing fitness of the first is higher: 0.0177 for the first, 0.00812 for the second.

Compared with C82G A111G A145U C150G U176C, C82G A111G A145U C150G U176G is lower in reverse-splicing fitness: 0.0287 for the first, 0.00715 for the second.

Going from C82G A111U A120C A145C C150U C169A to C82G A111U A120C A145C C150U C169U, the reverse-splicing fitness rises from 0.00911 to 0.0113.

Going from C82G A111U A120C A145C C150U C169G to C82G A111G C150U C169G, the reverse-splicing fitness rises from 0.00854 to 0.00932.

Compared with C82G A111G C150U C169U, C82G A111G C150U C169A is lower in reverse-splicing fitness: 0.0123 for the first, 0.0104 for the second.

First: C82G A111U A120C A145U C150U C169A
Second: C82G A111U A120C A145U C150U C169U
The reverse-splicing fitness of the first is lower: 0.0102 for the first, 0.0129 for the second.

First: C82G A111U A120C A145U C150U C169G
Second: C82G A111U A120C A145G C169A
The reverse-splicing fitness of the first is lower: 0.00939 for the first, 0.0109 for the second.

Going from C82G A111U A120C A145G C169G to C82G A111U A120C A145G C169U, the reverse-splicing fitness rises from 0.00963 to 0.0141.

Going from C82G A111G A145U C150U U176A to C82G A111G A145U C150U U176C, the reverse-splicing fitness rises from 0.154 to 0.165.

Going from C82G A111G A145U C150U U176G to C82G A111U A120C C150A C169A, the reverse-splicing fitness falls from 0.0614 to 0.0127.

Going from C82G A111U A120C C150A C169U to C82G A111U A120C C150A C169G, the reverse-splicing fitness falls from 0.0114 to 0.00894.

Going from C82G A111U A120C A145U C150A C169G U176C to C82G A111U A120C A145U C150A C169G U176G, the reverse-splicing fitness falls from 0.0247 to 0.00638.

Compared with C82G A111U A120C A145U C150A C169G U176A, C82G A111U A120C A145U C150U C169U U176A is lower in reverse-splicing fitness: 0.0207 for the first, 0.0134 for the second.

First: C82G A111U A120C A145U C150U C169U U176G
Second: C82G A111U A120C A145U C150U C169U U176C
The reverse-splicing fitness of the first is lower: 0.00575 for the first, 0.0137 for the second.

First: C82G A111G A145U C169A U176C
Second: C82G A111G A145U C169A U176A
The reverse-splicing fitness of the first is higher: 0.0135 for the first, 0.0133 for the second.

Going from C82G A111G A145U C169A U176G to C82G A111U A120C A145U C169U U176G, the reverse-splicing fitness falls from 0.0052 to 0.00499.

First: C82G A111U A120C A145U C169U U176C
Second: C82G A111U A120C A145U C169U U176A
The reverse-splicing fitness of the first is higher: 0.0158 for the first, 0.0149 for the second.

Compared with C82G A111U A120C A145G C169G U176G, C82G A111U A120C A145G C169G U176A is higher in reverse-splicing fitness: 0.00543 for the first, 0.0187 for the second.

First: C82G A111U A120C A145G C169G U176C
Second: C82G A111U A120C A145C C169A
The reverse-splicing fitness of the first is higher: 0.0281 for the first, 0.00886 for the second.

Going from C82G A111U A120C A145C C169G to C82G A111U A120C A145C C169U, the reverse-splicing fitness rises from 0.00986 to 0.0119.

For C82G A111G A145U C169G U176C, the reverse-splicing fitness was 0.0147.
